Ends that are not written are not given here.
Target: T1, dipeptidyl-peptidase IV (DPP-IV) (Homo sapiens, UniProt P27487)
T1 construct: purchased Creative BioMart (Shirley, NY, USA); host or cells: HEK293 human cells
Assay: DPP-IV inhibition assay on SPOT-synthesized peptides (cleaved from cellulose membrane)
Type: biochemical
Settings: peptides cleaved from cellulose membrane, concentration not known (semi-quantitative); averages of four determinations from two experiments
Source text: Recombinant human dipeptidyl-peptidase IV (DPP-IV, EC 3.4.14.5, expressed in HEK293 human cells, >95% purity, activity >5500 pmoles Gly–Pro–7-amido-4-methylcoumarin/min/µg) was purchased from Creative BioMart (Shirley, NY, USA) while polyclonal goat DPP-IV antibody and polyclonal donkey anti-goat secondary antibody conjugated to horseradish peroxidase were obtained from R&D Systems (Minneapolis, MN, USA). Pierce™ ECL western blotting substrate and protein-free (TBS) blocking buffer were from Thermo Scientific (Rockford, IL, USA). Gly–Pro–p-nitroanilide (H-Gly–Pro–p-NA∙HCl) was purchased from Bachem Americas (Torrance, CA, USA). Synthesized peptides (≥95% purity) were prepared and purified by GL Biochem (Shanghai) Ltd. (Shanghai, China).
Peptide arrays of deca-peptides spanning the entire α-lactalbumin sequence with a frame shift of one amino acid between successive sequences were prepared by Kinexus Bioinformatics Corporation (Vancouver, BC, Canada). The peptides were synthesized from the C-terminal amino acid using the SPOT technology consisting of the stepwise coupling of the Fmoc-protected amino acids and cleavage of the side chain protection groups. The α-lactalbumin-derived peptides were synthesized on trioxatridecanediamine (TOTD) and β-alanine-modified Whatman 540 cellulose membranes for the binding and inhibition assays, respectively. For the inhibition assay, the peptides were synthesized in large dots (5–7 mm in diameter) and the quality of the synthesis was verified by HPLC analysis of quality controls spots included on the membranes.
In order to determine the effect of the SPOT-synthesized peptides on the activity of the DPP-IV enzyme, the peptides were first cleaved from the cellulose support by incubating the membranes with gaseous ammonia overnight. Peptide spots (5 mm in diameter) were then punched out using a single-hole punch and transferred into microcentrifuge tubes containing 150 µL of acetonitrile (50% in 100 mM Tris–HCl buffer pH 8.0). The peptide solution (50 µL) was pipetted into a 96-well microplate with 35 µL of the chromogenic substrate Gly–Pro–p-NA (0.29 mM in 100 mM Tris–HCl buffer pH 8.0). The mixture was pre-incubated for 10 min at 37 °C, whereupon 15 µL of DPP-IV (25 mU/mL) was added and the enzymatic reaction was carried out for 30 min at 37 °C. The reaction was then terminated by addition of 100 µL of 1 M sodium acetate buffer pH 4.0 and the absorbance of the released p-nitroaniline was measured at 405 nm using a Tecan Infinite® 200 Pro microplate reader (ESBE Scientific, Markham, ON, Canada). Positive and negative controls (DPP-IV activity with no inhibitor and no DPP-IV activity, respectively) were prepared using punched peptide-free cellulose spots from the same membrane used for peptide synthesis, and adding Tris-HCl buffer in place of the sample and in place of the sample and enzyme solution, respectively.
One unit of DPP-IV was defined as the concentration of enzyme that releases 1 µmol per min of p-nitroaniline from Gly–Pro–p-NA (100 µM) at 37 °C and pH 8.0.

T1 sequence (P27487 whole entry): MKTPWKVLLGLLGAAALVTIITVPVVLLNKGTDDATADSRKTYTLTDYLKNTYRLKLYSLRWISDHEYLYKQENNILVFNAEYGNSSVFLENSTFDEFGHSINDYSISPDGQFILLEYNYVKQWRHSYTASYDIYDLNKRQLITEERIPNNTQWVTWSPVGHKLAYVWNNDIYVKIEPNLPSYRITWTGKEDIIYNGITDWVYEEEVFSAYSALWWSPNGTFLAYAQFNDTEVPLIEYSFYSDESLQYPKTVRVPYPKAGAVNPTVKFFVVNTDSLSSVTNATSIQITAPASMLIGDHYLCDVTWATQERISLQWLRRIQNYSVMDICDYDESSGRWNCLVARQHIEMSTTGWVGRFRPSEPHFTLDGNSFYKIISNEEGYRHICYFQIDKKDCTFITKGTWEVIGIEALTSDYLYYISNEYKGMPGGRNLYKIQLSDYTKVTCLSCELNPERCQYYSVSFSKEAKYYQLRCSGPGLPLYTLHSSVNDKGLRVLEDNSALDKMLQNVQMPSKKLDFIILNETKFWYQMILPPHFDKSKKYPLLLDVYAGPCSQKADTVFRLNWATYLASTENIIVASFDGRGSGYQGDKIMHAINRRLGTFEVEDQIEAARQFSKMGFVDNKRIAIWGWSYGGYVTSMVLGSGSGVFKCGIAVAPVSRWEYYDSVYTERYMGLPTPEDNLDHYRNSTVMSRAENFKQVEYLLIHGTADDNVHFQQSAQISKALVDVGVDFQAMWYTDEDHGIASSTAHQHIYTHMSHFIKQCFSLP

Substance | Percent inhibition of DPP-IV activity, SPOT-synthesized deca-peptides
A2: α-lactalbumin-derived deca-peptide, residues 2–11 (Table S1) (QFTKCELSQL; UniProt P00709 21-30, looked up, fragment) | 16%
A3: α-lactalbumin-derived deca-peptide, residues 3–12 (Table S1) (FTKCELSQLL; UniProt P00709 22-31, looked up, fragment) | 20%
A4: α-lactalbumin-derived deca-peptide, residues 4–13 (Table S1) (TKCELSQLLK; UniProt P00709 23-32, looked up, fragment) | 20%
A5: α-lactalbumin-derived deca-peptide, residues 5–14 (Table S1) (KCEVFRELKD; UniProt P00711 24-33, looked up, fragment) | 17%
A6: α-lactalbumin-derived deca-peptide, residues 6–15 (Table S1) (CEVFRELKDL; UniProt P00711 25-34, looked up, fragment) | 16%
A7: α-lactalbumin-derived deca-peptide, residues 7–16 (Table S1) (EVFRELKDLK; UniProt P00711 26-35, looked up, fragment) | 18%
A9: α-lactalbumin-derived deca-peptide, residues 9–18 (Table S1) (FRELKDLKGY; UniProt P00711 28-37, looked up, fragment) | 17%
AHKALCSEKL [J7] | 21%
AIVQNNDSTE [D7] | 11%
ALCSEKLDQW [J10] | 21%
B1: α-lactalbumin-derived deca-peptide, residues 12–21 (Table S1) (LKDLKGYGGV; UniProt P00711 31-40, looked up, fragment) | 11%
B2: α-lactalbumin-derived deca-peptide, residues 13–22 (Table S1) (KDLKGYGGVS; UniProt P00711 32-41, looked up, fragment) | 11%
B3: α-lactalbumin-derived deca-peptide, residues 14–23 (Table S1) (DIDGYGGIAL; UniProt P00709 33-42, looked up, fragment) | 13%
B4: α-lactalbumin-derived deca-peptide, residues 15–24 (Table S1) (LKGYGGVSLP; UniProt P00711 34-43, looked up, fragment) | 13%
B5: α-lactalbumin-derived deca-peptide, residues 16–25 (Table S1) (KGYGGVSLPE; UniProt P00711 35-44, looked up, fragment) | 11%
B7: α-lactalbumin-derived deca-peptide, residues 18–27 (Table S1) (YGGVSLPEWV; UniProt P00711 37-46, looked up, fragment) | 15%
B8: α-lactalbumin-derived deca-peptide, residues 19–28 (Table S1) (GGVSLPEWVC; UniProt P00711 38-47, looked up, fragment) | 15%
B9: α-lactalbumin-derived deca-peptide, residues 20–29 (Table S1) (GVSLPEWVCT; UniProt P00711 39-48, looked up, fragment) | 15%
C2: α-lactalbumin-derived deca-peptide, residues 24–33 (Table S1) (PEWVCTTFHT; UniProt P00711 43-52, looked up, fragment) | 14%
C3: α-lactalbumin-derived deca-peptide, residues 25–34 (Table S1) (ELICTMFHTS; UniProt P00709 44-53, looked up, fragment) | 18%
C4: α-lactalbumin-derived deca-peptide, residues 26–35 (Table S1) (WVCTTFHTSG; UniProt P00711 45-54, looked up, fragment) | 26%

Substance | Percent inhibition of DPP-IV activity, SPOT-synthesized deca-peptides
C5: α-lactalbumin-derived deca-peptide, residues 27–36 (Table S1) (ICTMFHTSGY; UniProt P00709 46-55, looked up, fragment) | 16%
C6: α-lactalbumin-derived deca-peptide, residues 28–37 (Table S1) (CTTFHTSGYD; UniProt P00711 47-56, looked up, fragment) | 10%
C7: α-lactalbumin-derived deca-peptide, residues 29–38 (Table S1) (TTFHTSGYDT; UniProt P00711 48-57, looked up, fragment) | 5%
C8: α-lactalbumin-derived deca-peptide, residues 30–39 (Table S1) (TFHTSGYDTQ; UniProt P00711 49-58, looked up, fragment) | 13%
CDKFLDDDLT [G11] | 22%
CSEKLDQWLC [K1] | 22%
D1: α-lactalbumin-derived deca-peptide, residues 34–43 (Table S1) (SGYDTQAIVE; UniProt P00709 53-62, looked up, fragment) | 11%
D2: α-lactalbumin-derived deca-peptide, residues 35–44 (Table S1) (GYDTQAIVQN; UniProt P00711 54-63, looked up, fragment) | 9%
D3: α-lactalbumin-derived deca-peptide, residues 36–45 (Table S1) (YDTQAIVENN; UniProt P00709 55-64, looked up, fragment) | 11%
D5: α-lactalbumin-derived deca-peptide, residues 38–47 (Table S1) (TQAIVQNNDS; UniProt P00711 57-66, looked up, fragment) | 14%
D6: α-lactalbumin-derived deca-peptide, residues 39–48 (Table S1) (QAIVQNNDST; UniProt P00711 58-67, looked up, fragment) | 14%
DDQNPHSSNI [F8] | 15%
DQNPHSSNIC [F9] | 15%
DSTEYGLFQI [E2] | 14%
EKLDQWLCEK [K3] | 24%
ELKDLKGYGG [A11] | 8%
EYGLFQINNK [E5] | 10%
FQINNKIWCK [E9] | 20%
G1: α-lactalbumin-derived deca-peptide, residues 67–76 (Table S1) (PHSSNICNIS; UniProt P00711 86-95, looked up, fragment) | 11%
G2: α-lactalbumin-derived deca-peptide, residues 68–77 (Table S1) (HSSNICNISC; UniProt P00711 87-96, looked up, fragment) | 9%
G3: α-lactalbumin-derived deca-peptide, residues 69–78 (Table S1) (SSNICNISCD; UniProt P00711 88-97, looked up, fragment) | 16%

Source: article PMC4264199, “Peptide Array on Cellulose Support—A Screening Tool to Identify Peptides with Dipeptidyl-Peptidase IV Inhibitory Activity within the Sequence of α-Lactalbumin” (International Journal of Molecular Sciences, 2014)
